Assay results taken from a protein production outcome set (Wang et al. 2014).

Experiment: label from the status in PepcDB records

Sequence	protein production
MKFGRKCRIIVFISLVLFTFPVFSQDKNFTDKPSSSDKRVASEEFRRGVQAYYRGTFNEAILLFEKALSYLPDESLILDWLGKAYYSSGVEGAALTQWELAEAAGYGGMLLKNKIEILKESRSLTPYSSDNIKYVENSSFSSKNGTVELFRQPLSIAAVSDGSFWMTAYGSNELLHFNVNGIILDRTKGPIQGFDRPFDVIALSDGNLLVSEFAADRISLLDKNGSFIKSFGTRGRGNGEFIGPQFLAEDEYGNIYVCDFGNARIVVFSSAGEPLFTFGKKSGLFGGFTAPAGIAVVDGLVYIADAIKGAVYTFDTAGNFVQSLLPEGTLKQIESLREWNGNLVASAGNKAYLIDIAFSTVSELTSLGNVPTKITAAVPDVNGSLLLIDHKNQTVEITSRINELAGGLFVLIKKVYSDKFPEVLVEVSVQNRDGKQIVGLTQDNFIITEGNRPVADYSLTGSSYLNKTCDIAVIVERSPNSLKEKALIEAALKEIAEAMQGRGKISLISASSIPALEGKFSPADLITLPNRIKTPASSDWKLDLALRLAVGELINAEQKRAVLFLNFSDPNSDNFKQYNLNDLASYMKNNNIRFYPISLKKGAPASEMSYLAKKTGGKTSYIYAERGLKPLIDDIIEKPLGMYQLKYTSTMSTDFGRSFLPVEVEVQLLERSGRDEIGYFAPLE	failed
MKFLELNKKRHATKHFTDKLVDPKDVRTAIEIATLAPSAHNSQPWKFVVVREKNAELAKLAYGSNFEQVSSAPVTIALFTDTDLAKRARKIARVGGANNFSEEQLQYFMKNLPAEFARYSEQQVSDYLALNAGLVAMNLVLALTDQGIGSNIILGFDKSKVNEVLEIEDRFRPELLITVGYTDEKLEPSYRLPVDEIIEKR	not failed
MKFLVENLNGSSFELEVDYRDTLLVVKQKIERSQHIPVSKQTLIVDGIVILREDLTVEQCQIVPTSDIQLEVSS	not failed
MKFRGNFVCQPRAGPAESRPTRPFTPRPSATGSLFMSNQHFVSPDLIRQGFSRAMSDMYREEVPLYGALMELVAEVNAQVLERQPALARHLQSSGELQRLDLERHGAIRVGSAAELATLARLFAVMGMQPVGYYDLTPAGVPVHSTAFRAVHEAALQVSPFRVFTSLLRLELIDNPELRSFAEQVLARRQIFTPQVLELIQQAEAAGGLDAEDAERFIRQALETFRWHHHATVTAAQYASLSAQHRLIADVVAFKGPHINHLTPRTLDIDEVQRLMPARGITPKAVIEGPPRRECPILLRQTSFKALEESVAFTDQAQSQGSHSARFGEIEQRGAALTPKGRELYDRLLNAARDALGDFPNEANAQRYNQLMQEHFREFPDSHPAMREQGLAYFRYFVSETGLAARNQPQRPTTLAALLAAGHLSAEPLVYEDFLPVSAAGIFQSNLGDDSQSHYAGQSNRQAFEAALGRPTLDELQLYAQTQQRSLEHCAATLGLPALLEHHHHHH	failed
MKFTKNQFIWLVVLFFSCFLIYTYWETVVSICNKIFVASQPFLFGAGIAFVVNILMSFYEKILIKFIPFGFITKIKRPVSLLLAFATIGLIFTWVVFTVLPDLIDSINTLISQDRSAINNLINWLLKNKSLQKIIQDLGGVTQVRELINSYSAQLLQQIMNGLTNFLTSLTSLPSTLINLFISIVFSCYVLVGKEKLGSQVNRLVDVYLGRYGKTFHYVVAILNNRFHNFFVYQSIEACILGTLCYIGMRIFNFPYAATISILIGFSAMIPVLGAYIGVTIGTILIMTHSVTLALLFVAYVVILQQFEGNLIYPYVVGGSTGLPVVWVILAITIGSALGGILGMLVSVPVAATLYQIVKDNVVTREKAKAVASLENSD	not failed
MKGILFAVFAGIFITLQGTFNAKLSSHIGIWSTSIITHLIGFIIATTVFLLKKEEKVTDLKSVKKIYLVAGAFGGFIICAETMAIYSLGVTLTAGTLMAAQLLTATVIEMKGLFHIKKIQMERYHIVGTIVMIIGIVVFNM	failed
MKGLRRLVLDVLKPHEPKTIVFALKLSELENVDGVNIHLSEIDQATENIKITILGNNLDYEQIKGVIEDLGGVIHSVDEVVAGKIIVESVKTEQDLEHHHHHH	failed
MKGNCLLKEYQVTMSDDAKADLLSIYHYVRDELCAPQAADDLLERLSQGMLSLSIFPERCAIIEDLIGKGYTFRQLIVKKYRIVYHVLEDEVIIVAVVYGSRHMNNWLEHHHHHH	failed
MKGNSFGEIISSEDIGLRKGADSSHEIITSIPSGARVNIIDKMSKDWYKVSYKDFTGYLQAKDIRVLGLEHHHHHH	failed
MKGTFTNLLVLLLIALVCANVGARKLISEDTQFKDEKSFLGGGGSGDGLGLGLGGGAGLGGLGIGAGIGAGAGLGLGGGGGGLGGGGGGLLGGGGFGGGAGGGLGGLP	failed
